{"source": "the supplement of paper PMC10567573", "parents": {"B1": {"name": "MMP1 (parent)", "chain": "FHGTRQYKFDPKTKRILTLQKANS"}}}
{"variants_of": "B1", "assay": "protein stability index of a GFP-peptide fusion (GPS, HEK-293T) (PSI 1-6); higher = more stable", "conditions": "c terminus: a fixed tail appended"}
{"variant": "FHGTRQYKFDPKTKRHLTLQKANS", "note": "[I16H]", "protein stability index": 1.42}
{"variant": "FHGTRQYKFDPKTKRKLTLQKANS", "note": "[I16K]", "protein stability index": 1.67}
{"variant": "FHGTRQYKFDPKTKRVLTLQKANS", "note": "[I16V]", "protein stability index": 2.25}
{"variant": "FHGTRQRKFDPKTKRILTLQKANS", "note": "[Y7R]", "protein stability index": 2.4}
{"variant": "FHGTRQEKFDPKTKRILTLQKANS", "note": "[Y7E]", "protein stability index": 2.5}
{"variant": "FHGTRQKKFDPKTKRILTLQKANS", "note": "[Y7K]", "protein stability index": 2.55}
{"variant": "FHGTRQVKFDPKTKRILTLQKANS", "note": "[Y7V]", "protein stability index": 2.27}
{"variant": "FHGTRQFKFDPKTKRILTLQKANS", "note": "[Y7F]", "protein stability index": 1.75}
{"variant": "FHGTRQYKFDPKTKRILTLPKANS", "note": "[Q20P]", "protein stability index": 2.06}
{"variant": "FHGTRQYKFDPKTKRILTLSKANS", "note": "[Q20S]", "protein stability index": 2.28}
{"variant": "FHGTRQYKFDPKTKRILTLVKANS", "note": "[Q20V]", "protein stability index": 1.75}
{"variant": "FHGTRQYKFDPKTKRILTLHKANS", "note": "[Q20H]", "protein stability index": 2.09}
{"variant": "FHGTRQYKFDPKTKRILTLMKANS", "note": "[Q20M]", "protein stability index": 1.45}
{"variant": "FHGTRQYKFDRKTKRILTLQKANS", "note": "[P11R]", "protein stability index": 1.88}
{"variant": "FHGTRQYKFDIKTKRILTLQKANS", "note": "[P11I]", "protein stability index": 2.57}
{"variant": "FHGTRQYKFDVKTKRILTLQKANS", "note": "[P11V]", "protein stability index": 1.8}
{"variant": "FHGTRQYKFDSKTKRILTLQKANS", "note": "[P11S]", "protein stability index": 1.78}
{"variant": "FHGTRQYKFDWKTKRILTLQKANS", "note": "[P11W]", "protein stability index": 2.19}
{"variant": "FHGTRQYKFDAKTKRILTLQKANS", "note": "[P11A]", "protein stability index": 2.31}
{"variant": "FHGTRQYKFDEKTKRILTLQKANS", "note": "[P11E]", "protein stability index": 1.67}
{"variant": "FHGTRQYKFDCKTKRILTLQKANS", "note": "[P11C]", "protein stability index": 1.79}
{"variant": "FHGTRQYKFDHKTKRILTLQKANS", "note": "[P11H]", "protein stability index": 1.98}
{"variant": "FHGTRQYKFDYKTKRILTLQKANS", "note": "[P11Y]", "protein stability index": 2.13}
{"variant": "FHGTRQYKFDGKTKRILTLQKANS", "note": "[P11G]", "protein stability index": 1.66}
{"variant": "FHGTRQYKFDPKTKRILTLQKAWS", "note": "[N23W]", "protein stability index": 1.51}
{"variant": "FHGTRQYKFDPKTKRILTLQKAES", "note": "[N23E]", "protein stability index": 1.91}
{"variant": "FHGTRQYKFDPKTKRILTLQKAIS", "note": "[N23I]", "protein stability index": 2.87}
{"variant": "FHGTRQYKFDPKTKRILTLQKACS", "note": "[N23C]", "protein stability index": 2.32}
{"variant": "FHGTRQYKFDPKTKRILTLQKARS", "note": "[N23R]", "protein stability index": 2.38}
{"variant": "FHGTRQYKFDPKTKRILTLQKAYS", "note": "[N23Y]", "protein stability index": 2.1}
{"variant": "FHGTRQYKFDPKTKRILTLQKAVS", "note": "[N23V]", "protein stability index": 2.08}
{"variant": "FHGTRQYKFDPKTKRILTLQKASS", "note": "[N23S]", "protein stability index": 1.93}
{"variant": "FHGTRQYKFDPKTKRILTLQKAHS", "note": "[N23H]", "protein stability index": 1.88}
{"variant": "FHGTRQYKFDPKTKRILTLQKAGS", "note": "[N23G]", "protein stability index": 1.39}
{"variant": "FHGTRQYKFDPQTKRILTLQKANS", "note": "[K12Q]", "protein stability index": 2.04}
{"variant": "FHGTRQYKFDPRTKRILTLQKANS", "note": "[K12R]", "protein stability index": 2.44}
{"variant": "FHGTRQYKFDPPTKRILTLQKANS", "note": "[K12P]", "protein stability index": 2.26}
{"variant": "FHGTRQYKFDPATKRILTLQKANS", "note": "[K12A]", "protein stability index": 1.87}
{"variant": "FHGTRQYKFDPDTKRILTLQKANS", "note": "[K12D]", "protein stability index": 1.53}
{"variant": "FHGTRQYKFDPHTKRILTLQKANS", "note": "[K12H]", "protein stability index": 2.21}
{"variant": "FHGTRQYKFDPCTKRILTLQKANS", "note": "[K12C]", "protein stability index": 1.86}
{"variant": "FHGTRQYKFDPGTKRILTLQKANS", "note": "[K12G]", "protein stability index": 1.47}
{"variant": "FHGTRQYKFDPFTKRILTLQKANS", "note": "[K12F]", "protein stability index": 2.27}
{"variant": "QHGTRQYKFDPKTKRILTLQKANS", "note": "[F1Q]", "protein stability index": 3.32}
{"variant": "NHGTRQYKFDPKTKRILTLQKANS", "note": "[F1N]", "protein stability index": 3.34}
{"variant": "CHGTRQYKFDPKTKRILTLQKANS", "note": "[F1C]", "protein stability index": 2.95}
{"variant": "AHGTRQYKFDPKTKRILTLQKANS", "note": "[F1A]", "protein stability index": 3}
{"variant": "THGTRQYKFDPKTKRILTLQKANS", "note": "[F1T]", "protein stability index": 3.4}
{"variant": "SHGTRQYKFDPKTKRILTLQKANS", "note": "[F1S]", "protein stability index": 3.43}
{"variant": "GHGTRQYKFDPKTKRILTLQKANS", "note": "[F1G]", "protein stability index": 3.44}
{"variant": "HHGTRQYKFDPKTKRILTLQKANS", "note": "[F1H]", "protein stability index": 3.12}
{"variant": "FHGCRQYKFDPKTKRILTLQKANS", "note": "[T4C]", "protein stability index": 1.6}
{"variant": "FHGYRQYKFDPKTKRILTLQKANS", "note": "[T4Y]", "protein stability index": 2.98}
{"variant": "FHGVRQYKFDPKTKRILTLQKANS", "note": "[T4V]", "protein stability index": 1.69}
{"variant": "FHGRRQYKFDPKTKRILTLQKANS", "note": "[T4R]", "protein stability index": 2.06}
{"variant": "FHGIRQYKFDPKTKRILTLQKANS", "note": "[T4I]", "protein stability index": 2.13}
{"variant": "FHGDRQYKFDPKTKRILTLQKANS", "note": "[T4D]", "protein stability index": 2.43}
{"variant": "FHGGRQYKFDPKTKRILTLQKANS", "note": "[T4G]", "protein stability index": 1.78}
{"variant": "FHGPRQYKFDPKTKRILTLQKANS", "note": "[T4P]", "protein stability index": 1.61}
{"variant": "FHGTRQYKFDPKTKRILTPQKANS", "note": "[L19P]", "protein stability index": 1.87}
{"variant": "FHGTRQYKFDPKTKRILTAQKANS", "note": "[L19A]", "protein stability index": 1.54}
{"variant": "FHGTRQYKFDPKTKRILTNQKANS", "note": "[L19N]", "protein stability index": 1.94}
{"variant": "FHGTRQYKFDPKTKRILTYQKANS", "note": "[L19Y]", "protein stability index": 2.34}
{"variant": "FHGTRQYKFDPKTKRILTHQKANS", "note": "[L19H]", "protein stability index": 1.59}
{"variant": "FHGTRQYKFDPKTKRILTIQKANS", "note": "[L19I]", "protein stability index": 2.05}
{"variant": "FHGTRQYKFDPKTKRILTDQKANS", "note": "[L19D]", "protein stability index": 2.49}
{"variant": "FHGTRQYKFDPKTKRILTSQKANS", "note": "[L19S]", "protein stability index": 2.03}
{"variant": "FHGTRQYKFDPKTKRILTKQKANS", "note": "[L19K]", "protein stability index": 2.05}
{"variant": "FHGTRQYKFDPKTKRILTEQKANS", "note": "[L19E]", "protein stability index": 1.73}
{"variant": "FHGTRQYKFYPKTKRILTLQKANS", "note": "[D10Y]", "protein stability index": 2.01}
{"variant": "FHGTRQYKFIPKTKRILTLQKANS", "note": "[D10I]", "protein stability index": 2.14}
{"variant": "FHGTRQYKFNPKTKRILTLQKANS", "note": "[D10N]", "protein stability index": 1.22}
{"variant": "FHGTRQYKFCPKTKRILTLQKANS", "note": "[D10C]", "protein stability index": 1.49}
{"variant": "FHGTRQYKFMPKTKRILTLQKANS", "note": "[D10M]", "protein stability index": 2.18}
{"variant": "FHGTRQYKFAPKTKRILTLQKANS", "note": "[D10A]", "protein stability index": 1.88}
{"variant": "FHGTRQYKFDPKTKNILTLQKANS", "note": "[R15N]", "protein stability index": 1.73}
{"variant": "FHGTRQYKFDPKTKCILTLQKANS", "note": "[R15C]", "protein stability index": 1.28}
{"variant": "FHGTRQYKFDPKTKIILTLQKANS", "note": "[R15I]", "protein stability index": 2.05}
{"variant": "FHGTRIYKFDPKTKRILTLQKANS", "note": "[Q6I]", "protein stability index": 2.39}
{"variant": "FHGTRPYKFDPKTKRILTLQKANS", "note": "[Q6P]", "protein stability index": 1.46}
{"variant": "FHGTRFYKFDPKTKRILTLQKANS", "note": "[Q6F]", "protein stability index": 3.64}
{"variant": "FHGTRNYKFDPKTKRILTLQKANS", "note": "[Q6N]", "protein stability index": 1.92}
{"variant": "FHGTRYYKFDPKTKRILTLQKANS", "note": "[Q6Y]", "protein stability index": 2.04}
{"variant": "FHGTRQYKFDPKTKRILTLQVANS", "note": "[K21V]", "protein stability index": 1.6}
{"variant": "FHGTRQYKFDPKTKRILTLQMANS", "note": "[K21M]", "protein stability index": 1.54}
{"variant": "FHGTRQYKFDPKTKRILTLQFANS", "note": "[K21F]", "protein stability index": 2.14}
{"variant": "FHGTRQYKFDPKTKRILTLQLANS", "note": "[K21L]", "protein stability index": 1.32}
{"variant": "FHGTRQYKFDPKTKRILTLQCANS", "note": "[K21C]", "protein stability index": 2.53}
{"variant": "FHGTRQYKFDPKTKRILTLQIANS", "note": "[K21I]", "protein stability index": 1.78}
{"variant": "FHGTRQYKFDPKTKRILTLQSANS", "note": "[K21S]", "protein stability index": 1.81}
{"variant": "FHGTRQYKFDPKTKRILTLQGANS", "note": "[K21G]", "protein stability index": 1.11}
{"variant": "FHGTRQYKFDPKTKRILTLQDANS", "note": "[K21D]", "protein stability index": 1.88}
{"variant": "FHGTRQYKFDPKTKRILTLQHANS", "note": "[K21H]", "protein stability index": 2.33}
{"variant": "FHGTRQYKFDPKTKRILTLQEANS", "note": "[K21E]", "protein stability index": 2.86}
